According to US20220025344A1 (Novartis, published 2022):
Values joined by “and” are separate entries in the source; they are usually repeats but may differ in a detail not shown here. Identical values can stand only once. One block for each molecule: values may come before it.

T1: hANGPTL4-myc (human, UniProt Q9BY76)
T1 construct: residues 26-406; It is a different tag version from m7; also called ANGPTL4(26-406)-6HIS-myc
T1 sequence (single chain, looked up): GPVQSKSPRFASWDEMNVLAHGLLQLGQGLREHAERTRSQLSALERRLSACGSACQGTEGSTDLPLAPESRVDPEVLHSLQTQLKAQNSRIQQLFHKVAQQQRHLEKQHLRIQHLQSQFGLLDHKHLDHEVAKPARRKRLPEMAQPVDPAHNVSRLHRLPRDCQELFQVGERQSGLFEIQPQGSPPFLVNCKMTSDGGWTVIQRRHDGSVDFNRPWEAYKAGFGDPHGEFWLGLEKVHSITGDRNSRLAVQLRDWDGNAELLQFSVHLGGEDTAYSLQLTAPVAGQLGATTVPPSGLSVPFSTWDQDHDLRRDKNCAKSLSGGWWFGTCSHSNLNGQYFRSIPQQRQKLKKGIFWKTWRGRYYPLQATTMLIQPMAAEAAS

T2: Co-expressed human LPL/soluble GPIHBP1 complex (human, UniProt P06858 28-475; Q8IV16 21-151, biotin at the C-terminal end of GPIHBP1 in the ELISA and SPR assays)
T2 construct: Non-covalent 1:1 complex; also called LPL/GPIHBP1 complex; LPL-GPIHBP1 complex
T2 sequence 1: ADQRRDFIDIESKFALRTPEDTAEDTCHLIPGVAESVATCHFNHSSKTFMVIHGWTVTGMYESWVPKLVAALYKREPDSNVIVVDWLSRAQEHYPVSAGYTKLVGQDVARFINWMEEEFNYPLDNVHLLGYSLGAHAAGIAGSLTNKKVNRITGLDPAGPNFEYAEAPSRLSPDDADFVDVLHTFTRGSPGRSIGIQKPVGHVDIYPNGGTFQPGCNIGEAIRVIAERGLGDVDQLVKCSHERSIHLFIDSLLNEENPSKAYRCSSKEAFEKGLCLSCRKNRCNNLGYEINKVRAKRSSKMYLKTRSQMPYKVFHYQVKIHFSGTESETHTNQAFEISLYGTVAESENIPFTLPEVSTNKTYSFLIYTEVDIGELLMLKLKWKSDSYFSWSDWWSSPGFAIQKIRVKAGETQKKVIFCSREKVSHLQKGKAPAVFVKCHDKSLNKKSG
T2 sequence 2: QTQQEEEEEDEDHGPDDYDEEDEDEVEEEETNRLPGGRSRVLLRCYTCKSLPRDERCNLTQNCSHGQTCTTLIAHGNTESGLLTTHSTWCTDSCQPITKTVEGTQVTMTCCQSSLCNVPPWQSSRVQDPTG

T3: Recombinant human LPL (mature human lipoprotein lipase, amino acids 28-475) (human, UniProt P06858 28-475)
T3 sequence: T2 sequence 1

B1: LPL(28-475)-(G4S)4-hGPIHBP1(21-151)-FLAG-HIS6-Avi (enzyme)
chain: ADQRRDFIDIESKFALRTPEDTAEDTCHLIPGVAESVATCHFNHSSKTFMVIHGWTVTGMYESWVPKLVAALYKREPDSNVIVVDWLSRAQEHYPVSAGYTKLVGQDVARFINWMEEEFNYPLDNVHLLGYSLGAHAAGIAGSLTNKKVNRITGLDPAGPNFEYAEAPSRLSPDDADFVDVLHTFTRGSPGRSIGIQKPVGHVDIYPNGGTFQPGCNIGEAIRVIAERGLGDVDQLVKCSHERSIHLFIDSLLNEENPSKAYRCSSKEAFEKGLCLSCRKNRCNNLGYEINKVRAKRSSKMYLKTRSQMPYKVFHYQVKIHFSGTESETHTNQAFEISLYGTVAESENIPFTLPEVSTNKTYSFLIYTEVDIGELLMLKLKWKSDSYFSWSDWWSSPGFAIQKIRVKAGETQKKVIFCSREKVSHLQKGKAPAVFVKCHDKSLNKKSGGGGGSGGGGSGGGGSGGGGSQTQQEEEEEDEDHGPDDYDEEDEDEVEEEETNRLPGGRSRVLLRCYTCKSLPRDERCNLTQNCSHGQTCTTLIAHGNTESGLLTTHSTWCTDSCQPITKTVEGTQVTMTCCQSSLCNVPPWQSSRVQDPTGDYKDDDDKHHHHHHGGGLNDIFEAQKIEWHE
modifications: biotin on the C-terminal AviTag in the ELISA and SPR assays
notes: also called LPL-GPIHBP1 fusion polypeptide; LPL-GPIHBP1 fusion
B2: Human soluble GPIHBP1(21-151)-FLAG-HIS6-Avi (receptor)
chain: QTQQEEEEEDEDHGPDDYDEEDEDEVEEEETNRLPGGRSRVLLRCYTCKSLPRDERCNLTQNCSHGQTCTTLIAHGNTESGLLTTHSTWCTDSCQPITKTVEGTQVTMTCCQSSLCNVPPWQSSRVQDPTGDYKDDDDKHHHHHHGGGLNDIFEAQKIEWHE
modifications: biotin on the C-terminal AviTag (BirA, site-specific) where used for immobilisation on streptavidin
notes: also called solGPIHBP1 with C-terminal FHA tag; C-terminally biotinylated GPIHBP1
B3: Human ANGPTL4(26-406)-FLAG-6HIS-Avi (ligand)
chain: GPVQSKSPRFASWDEMNVLAHGLLQLGQGLREHAERTRSQLSALERRLSACGSACQGTEGSTDLPLAPESRVDPEVLHSLQTQLKAQNSRIQQLFHKVAQQQRHLEKQHLRIQHLQSQFGLLDHKHLDHEVAKPARRKRLPEMAQPVDPAHNVSRLHRLPRDCQELFQVGERQSGLFEIQPQGSPPFLVNCKMTSDGGWTVIQRRHDGSVDFNRPWEAYKAGFGDPHGEFWLGLEKVHSITGDRNSRLAVQLRDWDGNAELLQFSVHLGGEDTAYSLQLTAPVAGQLGATTVPPSGLSVPFSTWDQDHDLRRDKNCAKSLSGGWWFGTCSHSNLNGQYFRSIPQQRQKLKKGIFWKTWRGRYYPLQATTMLIQPMAAEAASDYKDDDDKHHHHHHGGGLNDIFEAQKIEWHE

Tests used:
[1] = target: Recombinant human LPL (mature human lipoprotein lipase, amino acids 28-475) (human) (UniProt P06858); test: cell-based or functional assay
[2] = target: Co-expressed human LPL/soluble GPIHBP1 complex (human) (UniProt P06858); test: cell-based or functional assay
[3] = target: B3; test: MSD ELISA: 10 nM biotinylated fusion incubated with ANGPTL4 and captured on streptavidin; bound ANGPTL4 detected with an ANGPTL4 Ab
Method: LPL-GPIHBP1 complex or LPL-GPIHBP1 fusion (10 nM, site-specifically biotinylated at the C-terminal end of GPIHBP1) were incubated with increasing concentrations of ANGPTL4 (a 12 point 2-fold serial dilution with highest concentration of 100 nM). The reaction mix was then applied onto a streptavidin coated MSD. The presence of LPL and ANGPTL4 was detected using an LPL or ANGPTL4 specific Abs, which were subsequently quantified using sulpho-tagged secondary Ab. To generate a signal, lx MSD read buffer T was added and the plate was developed using a Sector Imager 6000 (Meso Scale Discovery).
First, the co-expressed LPL/GPIHBP1 complex or the LPL-GPIHBP1 fusion polypeptide was immobilized on a streptavidin surface through C-terminally biotinylated GPIHBP1. The proteins were then incubated with ANGPTL4 and changes in bound ANGPTL4 and LPL were monitored with respective high affinity antibodies. A schematic representation of the assay is depicted on top of FIG. 3, panel A. When the complex was incubated with ANGPTL4, displacement of LPL from the co-expressed LPL/GPIHBP1 complex as function of ANGPTL4 concentration was observed. On the other hand, ANGPTL4 was unable to displace LPL from the covalently linked LPL-GPIHBP1 fusion polypeptide (FIG. 3, panel A, left side). Correspondingly, when bound ANGPTL4 was probed, ANGPTL4 was not captured by the co-expressed LPL/GPIHBP1 complex. […]

[4] = target: T1, hANGPTL4-myc; test: TR-FRET binding assay (anti-HA-Tb / anti-myc-D2). Target taken from paragraph 181 (fusion polypeptide); the methods instead describe a 6HIS-hLPL-HA-Flag/hGPIHBP1-Avi complex at 10 nM. [cont.) C) left graph]
[5] = target: T2, Co-expressed human LPL/soluble GPIHBP1 …; test: TR-FRET dissociation of the LPL/GPIHBP1 complex: free hGPIHBP1-FHA binds the LPL of the complex and competes with the labelled GPIHBP1. FRET ratio falls from about 20000 to about 1000 between log -1 and log 3 (nM). [cont.) D]
[6] = target: T2, Co-expressed human LPL/soluble GPIHBP1 …; test: cell-based or functional assay
[7] = target: B1; test: cell-based or functional assay
[8] = target: T3, Recombinant human LPL (mature human …); test: cell-based or functional assay
[9] = target: T2, Co-expressed human LPL/soluble GPIHBP1 …; test: TR-FRET dissociation of the LPL/GPIHBP1 complex (10 nM 6HIS-hLPL-HA-Flag / biotinylated hGPIHBP1-Avi, anti-HA-Tb / streptavidin-D2). ANGPTL4 binds LPL and displaces GPIHBP1. [cont.) C) right graph]
Method: The assay for TR-FRET based detection of ANGPTL4 binding to the LPL/GPIHBP1 complex was carried out in 384-well plates (ProxiPlate™ 384-well white, Perkin Elmer, USA) in a final volume of 20 μl. The composition of the assay buffer was 20 mM HEPES pH=7.4, 100 mM NaCl, 10% HI-FBS, 5 mM CaCl₂). The assay procedure was as follows: First 4 μL/well of 5x 6HIS-hLPL-HA-Flag/biotinylated hGPIHBP1-Avi complex (50 nM stock in assay buffer, 10 nM complex final concentration) was added to 8 μL/well buffer. Then 4 μL/well 5x non-biotinylated ANGPTL4(26-406)-Flag-6HIS-Avi (final concentrations of 1 to 1000 nM) was added and incubation was carried out at room temperature for 1 hour. After incubation 4 μL 5× anti-HA-Tb/[…] (Cisbio, diluted in assay buffer to 1.25 nM anti-HA-Tb/50 nM streptavidin-D2 stock concentration) (0.3125 nM anti-HA-Tb/10 nM streptavidin-D2 final concentration) was added and the mixture was incubated at room temperature for 3 hours. Finally the plate was read on an Envision plate reader Ex=320 Em=665 Em=615.

[10] = target: T2, Co-expressed human LPL/soluble GPIHBP1 …; test: TR-FRET dissociation of the LPL/GPIHBP1 complex: ANGPTL4 binds the LPL of the complex and displaces the labelled GPIHBP1. FRET ratio falls from about 20000 to about 1000 between log -1 and log 3 (nM). [cont.) D]

IC50 of ANGPTL3 inactivation of LPL enzymatic activity [1]: 7 nM and 8 nM | IC50 of ANGPTL3 inactivation of LPL enzymatic activity [2]: 300 nM | fold resistance to ANGPTL3 inactivation against LPL alone [2]: > 37 fold
Molecule: Human ANGPTL3(17-460)-FLAG-HIS6-Avi (from UniProt Q9Y5C1 17-460) (ligand)

Molecule: B1
binding result [3]: binds | binding result [4]: binds

Molecule: B2
IC50 [5]: 15 nM

Molecule: B3
IC50 of ANGPTL4 inactivation of LPL enzymatic activity [6]: 19 nM | fold resistance to ANGPTL4 inactivation against LPL alone [6]: > 6 fold | IC50 of ANGPTL4 inactivation of LPL enzymatic activity [7]: 107 nM | fold increase of the IC50 of ANGPTL4 inactivation against LPL alone [7]: > 35 fold | fold increase of the IC50 of ANGPTL4 inactivation against the co-expressed LPL/GPIHBP1 complex [7]: > 5 fold | IC50 of ANGPTL4 inactivation of LPL enzymatic activity [8]: 3 nM | IC50 (read off the curve) [9]: ~20 nM | IC50 [10]: 18 nM
